From patent US20180258165A1 (CELL MEDICA SWITZERLAND, published 2018)

T1: cynomolgus IL-1 beta (cynomolgus, UniProt P79182 117-268)
T1 construct: Bought recombinant protein; also called cymonolgus IL-1 beta
T1 sequence (looked up): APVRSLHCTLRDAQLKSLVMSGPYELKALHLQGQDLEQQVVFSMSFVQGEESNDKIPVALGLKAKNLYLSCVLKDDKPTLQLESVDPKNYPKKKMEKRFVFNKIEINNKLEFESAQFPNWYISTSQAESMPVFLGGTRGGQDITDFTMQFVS

T2: rhesus macaque IL-1 beta (rhesus macaque, UniProt P48090 117-269)
T2 construct: Bought recombinant protein
T2 sequence (looked up): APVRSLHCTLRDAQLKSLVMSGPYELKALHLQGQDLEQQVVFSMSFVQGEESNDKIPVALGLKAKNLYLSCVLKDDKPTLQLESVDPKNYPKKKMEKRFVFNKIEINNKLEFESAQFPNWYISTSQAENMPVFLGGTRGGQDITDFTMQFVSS

T3: mouse IL-1 beta (mouse, UniProt P10749 118-269)
T3 construct: Bought recombinant protein
T3 sequence (looked up): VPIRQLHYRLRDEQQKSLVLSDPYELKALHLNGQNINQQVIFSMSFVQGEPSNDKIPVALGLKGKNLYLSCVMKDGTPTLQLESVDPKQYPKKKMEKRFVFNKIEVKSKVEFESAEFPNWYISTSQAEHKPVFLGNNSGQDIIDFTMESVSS


Assays:
[1] = molecular target: T4, recombinant human IL-1 beta (human, UniProt P01584 117-269, biotinylated in the ELISA of Example 2 (R&D systems, cat. no. NFLB0), sites not stated; unlabelled elsewhere); assay: cell-based or functional assay
[2] = molecular target: T4, recombinant human IL-1 beta; assay: ELISA, rhIL-1 beta coated, scFv 10 to 3'000 ng/ml, Protein L-HRP
Protocol: A scFv of irrelevant specificity was used as a control. rhIL-1 beta (Peprotech, cat. no. 200-01B) was coated to NUNC 96-well Maxisorp immunoplates. After blocking scFvs were titrated from 10 to 3′000 ng/ml. Bound scFvs were detected by Protein L-HRP (Sigma-Aldrich, cat. no. P3226), and the ELISA was developed using BM Blue POD substrate (Roche Applied Science, cat. no. 11484281001). For quantification purposes, the absorption was measured at 450 nm using VersaMax microplate reader (Molecular Devices).

cynomolgus IL-1 beta = molecular target: T1, cynomolgus IL-1 beta; assay: ELISA, IL-1 beta coated at 2 mcg/ml, DLX2295 at 0.1, 0.3 and 1.0 mcg/ml, Protein L-HRP
Protocol: (§1) Binding to the recombinantly expressed IL-1 beta proteins of the following species was investigated: cynomolgus (Sino Biological Inc., USA, cat. no. 90010-CNAE), rhesus macaque (R&D Systems, USA, cat. no. 1318-RL/CF) and mouse IL-1 beta (BioLegend, cat. no. 575102). […] Briefly, proteins were coated at a concentration of 2 mcg/ml over night at 4° C. on Maxisorp 96-well microplates in PBS pH 7.2. […] The ELISAs were developed with BM Blue POD substrate (Roche Applied Science) and the absorbance was measured at 450 nm.

rhesus macaque IL-1 beta = molecular target: T2, rhesus macaque IL-1 beta; assay: as above
Protocol: as §1

mouse IL-1 beta = molecular target: T3, mouse IL-1 beta; assay: as above
Protocol: as §1

Binder	IC50 of IL-1 beta-induced IL-6 release from human dermal fibroblasts [1] [pM]	binding result [2]	binding result (cynomolgus IL-1 beta)	binding result (rhesus macaque IL-1 beta)	binding result (mouse IL-1 beta)
DLX2260 (scFv) scFv: EIVMTQSPSTLSASVGDRVIITCRASQDISNYLSWYQQKPGKAPKLLIYYTSKLHSGVPSRFSGSGSGAEFTLTISSLQPDDFATYYCLQGKMLPWTFGQGTKLTVLGGGGGSGGGGSGGGGSGGGGSEVQLVESGGGLVQPGGSLRLSCTASGFSLSTSGMGVGWVRQAPGKGLEWVGHIWWDGDESYNPSLKSRFTISRDTSKNTVYLQMNSLRAEDTAVYYCARNRYDPPWFVDWGQGTLVTVSS	~100				
DLX2332 (scFv, also called anti-IL-1 beta scFv DLX2332) scFv: EIVMTQSPSTLSASVGDRVIITCRASQDISNYLSWYQQKPGKAPKLLIYYTSKLHSGVPSRFSGSGSGAEFTLTISSLQPEDFATYFCLQGKMLPWTFGQGTKLTVLGGGGGSGGGGSGGGGSGGGGSEVQLVESGGGSVQPGGSLRLSCAASGFSLSTSGMGVGWVRQAPGKGLEWVGHIWWDGDESYNPSLKSRFTISRDTSKNTVYLQMNSLRAEDTASYFCARNRYDPPWFVDWGQGTTVTVSS		binds			
DLX2295 (scFv, also called anti-IL-1 beta scFv DLX2295) scFv: DIQMTQSPSTLSASVGDRVTITCRASQDISNYLSWYQQKPGKAPKLLIYYTSKLHSGVPSRFSGSGSGAEFTLTISSLQPEDFATYFCLQGKMLPWTFGQGTKLEIKRGGGGSGGGGSGGGGSGGGGSEVQLVESGGGSVQPGGSLRLSCAFSGFSLSTSGMGVGWIRQAPGKGLEWVSHIWWDGDESYNPSLKGRFTISKDTSRNTVYLQMNSLRAEDTASYFCARNRYDPPWFVDWGQGTTVTVSS	2 to 5		binds	binds	binds
DLX2296 (scFv) scFv: DIQMTQSPSTLSASVGDRVTITCRASQDISNYLSWYQQKPGKAPKLLIYYTSKLHSGVPSRFSGSGSGAEFTLTISSLQPEDFATYFCLQGKMLPWTFGQGTKLEIKRGGGGSGGGGSGGGGSGGGGSEVQLVESGGGLVQPGGSLRLSCAFSGFSLSTSGMGVGWIRQAPGKGLEWVSHIWWDGDESYNPSLKGRFTISKDTSRNTVYLQMNSLRAEDTAVYFCARNRYDPPWFVDWGQGTLVTVSS	~8				
